According to US20140248303A1:

Tests used:
[1] = molecular target: 37/67 laminin receptor (LR) (Homo sapiens (Human)) (UniProt P08865); assay: cell-based or functional assay
[2] = molecular target: 37/67 laminin receptor (LR) (Homo sapiens (Human)) (UniProt P08865); assay: adhesion of construct-labeled latex microspheres to fixed TNF-activated RBCEC6 cells
[3] = molecular target: native CbpA of S. pneumoniae Tigr4 / T4R (on bacteria or in pneumococcal lysate) (Streptococcus pneumoniae Tigr4 strain); assay: cell-based or functional assay
[4] = molecular target: 37/67 laminin receptor (LR) (Homo sapiens (Human)) (UniProt P08865); assay: adhesion of labeled latex microspheres to RBCEC6 cells
[5] = molecular target: full length CbpA (CbpA-NR12) (Streptococcus pneumoniae Tigr4 strain); assay: competitive inhibition of rCbpA-coated latex beads binding to activated RBCEC6 cells by the LR peptide

## CbpA P393G (as printed) expressed on a CbpA- S. pneumoniae strain
[1]
  adherence to endothelial cells of a CbpA- strain expressing the mutant, less than wild type CbpA: 39 % less

## CbpA-R1
[2]
  bead adherence to RBCEC6 cells, % (compared with full length CbpA-NR12 beads): 10%

## LMWWML palindromic sequence within the 161-180 laminin-binding domain (peptide)
[3]
  bacterial adhesion to activated RBCEC6 cells, % of control: 108 % of control

## full length CbpA (CbpA-NR12)
[4]
  fold binding over control thioredoxin labeled beads: 20 fold

## native CbpA of S. pneumoniae Tigr4 / T4R (on bacteria or in pneumococcal lysate)
[1]
  pneumococcal (T4R) adherence to activated RBCEC6 cells, inhibited by anti-LRP r711: 54%
  pneumococcal (T4R) adherence to activated RBCEC6 cells, inhibited by laminin: 47%
  pneumococcal (T4R) invasion of activated RBCEC6 cells, inhibited by anti-LRP r711: 31%
  pneumococcal (T4R) invasion of activated RBCEC6 cells, inhibited by laminin: 36%

## peptide corresponding to amino acids 161-180 of the laminin receptor
[5]
  adhesion of rCbpA-coated latex beads, % of control: 93 % of control

## peptide corresponding to amino acids 263-282 of the laminin receptor
[5]
  adherence of rCbpA-coated latex beads, % of control: 38 % of control
